Data set [1] in a line: anti-Myc western blot of medium, normalised to IgG. (In general: In western blotting, separated proteins are transferred to a membrane and probed.)
Data set [2] can be described thus: western blot of cell lysates. The settings on record: glycan lost; control: wild type full-length MMRN1.
Setting [3] is: glycan lost, control: wild type full-length MMRN1.

B1: Multimerin-1 (MMRN1): FX KO (protein)
parent chain: MKGARLFVLLSSLWSGGIGLNNSKHSWTIPEDGNSQKTMPSASVPPNKIQSLQILPTTRVMSAEIATTPEARTSEDSLLKSTLPPSETSAPAEGVRNQTLTSTEKAEGVVKLQNLTLPTNASIKFNPGAESVVLSNSTLKFLQSFARKSNEQATSLNTVGGTGGIGGVGGTGGVGNRAPRETYLSRGDSSSSQRTDYQKSNFETTRGKNWCAYVHTRLSPTVILDNQVTYVPGGKGPCGWTGGSCPQRSQKISNPVYRMQHKIVTSLDWRCCPGYSGPKCQLRAQEQQSLIHTNQAESHTAVGRGVAEQQQQQGCGDPEVMQKMTDQVNYQAMKLTLLQKKIDNISLTVNDVRNTYSSLEGKVSEDKSREFQSLLKGLKSKSINVLIRDIVREQFKIFQNDMQETVAQLFKTVSSLSEDLESTRQIIQKVNESVVSIAAQQKFVLVQENRPTLTDIVELRNHIVNVRQEMTLTCEKPIKELEVKQTHLEGALEQEHSRSILYYESLNKTLSKLKEVHEQLLSTEQVSDQKNAPAAESVSNNVTEYMSTLHENIKKQSLMMLQMFEDLHIQESKINNLTVSLEMEKESLRGECEDMLSKCRNDFKFQLKDTEENLHVLNQTLAEVLFPMDNKMDKMSEQLNDLTYDMEILQPLLEQGASLRQTMTYEQPKEAIVIRKKIENLTSAVNSLNFIIKELTKRHNLLRNEVQGRDDALERRINEYALEMEDGLNKTMTIINNAIDFIQDNYALKETLSTIKDNSEIHHKCTSDMETILTFIPQFHRLNDSIQTLVNDNQRYNFVLQVAKTLAGIPRDEKLNQSNFQKMYQMFNETTSQVRKYQQNMSHLEEKLLLTTKISKNFETRLQDIESKVTQTLIPYYISVKKGSVVTNERDQALQLQVLNSRFKALEAKSIHLSINFFSLNKTLHEVLTMCHNASTSVSELNATIPKWIKHSLPDIQLLQKGLTEFVEPIIQIKTQAALSNLTCCIDRSLPGSLANVVKSQKQVKSLPKKINALKKPTVNLTTVLIGRTQRNTDNIIYPEEYSSCSRHPCQNGGTCINGRTSFTCACRHPFTGDNCTIKLVEENALAPDFSKGSYRYAPMVAFFASHTYGMTIPGPILFNNLDVNYGASYTPRTGKFRIPYLGVYVFKYTIESFSAHISGFLVVDGIDKLAFESENINSEIHCDRVLTGDALLELNYGQEVWLRLAKGTIPAKFPPVTTFSGYLLYRT
Turning to B1, in data set [1] (glycan lost, control: N-terminal EMI in WT HEK293T cells), the “expression_or_secretion, other: % reduction vs WT” value is on record as “decreases”.

B2: Multimerin-1 (MMRN1): T216A/T265A (protein)
parent chain: MKGARLFVLLSSLWSGGIGLNNSKHSWTIPEDGNSQKTMPSASVPPNKIQSLQILPTTRVMSAEIATTPEARTSEDSLLKSTLPPSETSAPAEGVRNQTLTSTEKAEGVVKLQNLTLPTNASIKFNPGAESVVLSNSTLKFLQSFARKSNEQATSLNTVGGTGGIGGVGGTGGVGNRAPRETYLSRGDSSSSQRTDYQKSNFETTRGKNWCAYVHTRLSPTVILDNQVTYVPGGKGPCGWTGGSCPQRSQKISNPVYRMQHKIVTSLDWRCCPGYSGPKCQLRAQEQQSLIHTNQAESHTAVGRGVAEQQQQQGCGDPEVMQKMTDQVNYQAMKLTLLQKKIDNISLTVNDVRNTYSSLEGKVSEDKSREFQSLLKGLKSKSINVLIRDIVREQFKIFQNDMQETVAQLFKTVSSLSEDLESTRQIIQKVNESVVSIAAQQKFVLVQENRPTLTDIVELRNHIVNVRQEMTLTCEKPIKELEVKQTHLEGALEQEHSRSILYYESLNKTLSKLKEVHEQLLSTEQVSDQKNAPAAESVSNNVTEYMSTLHENIKKQSLMMLQMFEDLHIQESKINNLTVSLEMEKESLRGECEDMLSKCRNDFKFQLKDTEENLHVLNQTLAEVLFPMDNKMDKMSEQLNDLTYDMEILQPLLEQGASLRQTMTYEQPKEAIVIRKKIENLTSAVNSLNFIIKELTKRHNLLRNEVQGRDDALERRINEYALEMEDGLNKTMTIINNAIDFIQDNYALKETLSTIKDNSEIHHKCTSDMETILTFIPQFHRLNDSIQTLVNDNQRYNFVLQVAKTLAGIPRDEKLNQSNFQKMYQMFNETTSQVRKYQQNMSHLEEKLLLTTKISKNFETRLQDIESKVTQTLIPYYISVKKGSVVTNERDQALQLQVLNSRFKALEAKSIHLSINFFSLNKTLHEVLTMCHNASTSVSELNATIPKWIKHSLPDIQLLQKGLTEFVEPIIQIKTQAALSNLTCCIDRSLPGSLANVVKSQKQVKSLPKKINALKKPTVNLTTVLIGRTQRNTDNIIYPEEYSSCSRHPCQNGGTCINGRTSFTCACRHPFTGDNCTIKLVEENALAPDFSKGSYRYAPMVAFFASHTYGMTIPGPILFNNLDVNYGASYTPRTGKFRIPYLGVYVFKYTIESFSAHISGFLVVDGIDKLAFESENINSEIHCDRVLTGDALLELNYGQEVWLRLAKGTIPAKFPPVTTFSGYLLYRT
Consider B2, for which the “expression_or_secretion, other: % reduction vs WT” value in data set [1] (setting [3]) is reported as “decreases”. Moreover, in data set [2], the expression_or_secretion result was “no change”.

B3: Multimerin-1 (MMRN1): T265A (protein)
parent chain: MKGARLFVLLSSLWSGGIGLNNSKHSWTIPEDGNSQKTMPSASVPPNKIQSLQILPTTRVMSAEIATTPEARTSEDSLLKSTLPPSETSAPAEGVRNQTLTSTEKAEGVVKLQNLTLPTNASIKFNPGAESVVLSNSTLKFLQSFARKSNEQATSLNTVGGTGGIGGVGGTGGVGNRAPRETYLSRGDSSSSQRTDYQKSNFETTRGKNWCAYVHTRLSPTVILDNQVTYVPGGKGPCGWTGGSCPQRSQKISNPVYRMQHKIVTSLDWRCCPGYSGPKCQLRAQEQQSLIHTNQAESHTAVGRGVAEQQQQQGCGDPEVMQKMTDQVNYQAMKLTLLQKKIDNISLTVNDVRNTYSSLEGKVSEDKSREFQSLLKGLKSKSINVLIRDIVREQFKIFQNDMQETVAQLFKTVSSLSEDLESTRQIIQKVNESVVSIAAQQKFVLVQENRPTLTDIVELRNHIVNVRQEMTLTCEKPIKELEVKQTHLEGALEQEHSRSILYYESLNKTLSKLKEVHEQLLSTEQVSDQKNAPAAESVSNNVTEYMSTLHENIKKQSLMMLQMFEDLHIQESKINNLTVSLEMEKESLRGECEDMLSKCRNDFKFQLKDTEENLHVLNQTLAEVLFPMDNKMDKMSEQLNDLTYDMEILQPLLEQGASLRQTMTYEQPKEAIVIRKKIENLTSAVNSLNFIIKELTKRHNLLRNEVQGRDDALERRINEYALEMEDGLNKTMTIINNAIDFIQDNYALKETLSTIKDNSEIHHKCTSDMETILTFIPQFHRLNDSIQTLVNDNQRYNFVLQVAKTLAGIPRDEKLNQSNFQKMYQMFNETTSQVRKYQQNMSHLEEKLLLTTKISKNFETRLQDIESKVTQTLIPYYISVKKGSVVTNERDQALQLQVLNSRFKALEAKSIHLSINFFSLNKTLHEVLTMCHNASTSVSELNATIPKWIKHSLPDIQLLQKGLTEFVEPIIQIKTQAALSNLTCCIDRSLPGSLANVVKSQKQVKSLPKKINALKKPTVNLTTVLIGRTQRNTDNIIYPEEYSSCSRHPCQNGGTCINGRTSFTCACRHPFTGDNCTIKLVEENALAPDFSKGSYRYAPMVAFFASHTYGMTIPGPILFNNLDVNYGASYTPRTGKFRIPYLGVYVFKYTIESFSAHISGFLVVDGIDKLAFESENINSEIHCDRVLTGDALLELNYGQEVWLRLAKGTIPAKFPPVTTFSGYLLYRT
As to B3, the “expression_or_secretion, other: % reduction vs WT” value in data set [1] (setting [3]) was “no change”. Moreover, the expression_or_secretion result in data set [2] is “no change”.

B4: Multimerin-1 (MMRN1): T216A (protein)
parent chain: MKGARLFVLLSSLWSGGIGLNNSKHSWTIPEDGNSQKTMPSASVPPNKIQSLQILPTTRVMSAEIATTPEARTSEDSLLKSTLPPSETSAPAEGVRNQTLTSTEKAEGVVKLQNLTLPTNASIKFNPGAESVVLSNSTLKFLQSFARKSNEQATSLNTVGGTGGIGGVGGTGGVGNRAPRETYLSRGDSSSSQRTDYQKSNFETTRGKNWCAYVHTRLSPTVILDNQVTYVPGGKGPCGWTGGSCPQRSQKISNPVYRMQHKIVTSLDWRCCPGYSGPKCQLRAQEQQSLIHTNQAESHTAVGRGVAEQQQQQGCGDPEVMQKMTDQVNYQAMKLTLLQKKIDNISLTVNDVRNTYSSLEGKVSEDKSREFQSLLKGLKSKSINVLIRDIVREQFKIFQNDMQETVAQLFKTVSSLSEDLESTRQIIQKVNESVVSIAAQQKFVLVQENRPTLTDIVELRNHIVNVRQEMTLTCEKPIKELEVKQTHLEGALEQEHSRSILYYESLNKTLSKLKEVHEQLLSTEQVSDQKNAPAAESVSNNVTEYMSTLHENIKKQSLMMLQMFEDLHIQESKINNLTVSLEMEKESLRGECEDMLSKCRNDFKFQLKDTEENLHVLNQTLAEVLFPMDNKMDKMSEQLNDLTYDMEILQPLLEQGASLRQTMTYEQPKEAIVIRKKIENLTSAVNSLNFIIKELTKRHNLLRNEVQGRDDALERRINEYALEMEDGLNKTMTIINNAIDFIQDNYALKETLSTIKDNSEIHHKCTSDMETILTFIPQFHRLNDSIQTLVNDNQRYNFVLQVAKTLAGIPRDEKLNQSNFQKMYQMFNETTSQVRKYQQNMSHLEEKLLLTTKISKNFETRLQDIESKVTQTLIPYYISVKKGSVVTNERDQALQLQVLNSRFKALEAKSIHLSINFFSLNKTLHEVLTMCHNASTSVSELNATIPKWIKHSLPDIQLLQKGLTEFVEPIIQIKTQAALSNLTCCIDRSLPGSLANVVKSQKQVKSLPKKINALKKPTVNLTTVLIGRTQRNTDNIIYPEEYSSCSRHPCQNGGTCINGRTSFTCACRHPFTGDNCTIKLVEENALAPDFSKGSYRYAPMVAFFASHTYGMTIPGPILFNNLDVNYGASYTPRTGKFRIPYLGVYVFKYTIESFSAHISGFLVVDGIDKLAFESENINSEIHCDRVLTGDALLELNYGQEVWLRLAKGTIPAKFPPVTTFSGYLLYRT
As for B4, the “expression_or_secretion, other: % reduction vs WT” value in data set [1] (setting [3]) is reported as “decreases”. In data set [2], the expression_or_secretion result is listed as “no change”.

B5: Multimerin-1 (MMRN1): FUT10/11 DKO (protein)
parent chain: MKGARLFVLLSSLWSGGIGLNNSKHSWTIPEDGNSQKTMPSASVPPNKIQSLQILPTTRVMSAEIATTPEARTSEDSLLKSTLPPSETSAPAEGVRNQTLTSTEKAEGVVKLQNLTLPTNASIKFNPGAESVVLSNSTLKFLQSFARKSNEQATSLNTVGGTGGIGGVGGTGGVGNRAPRETYLSRGDSSSSQRTDYQKSNFETTRGKNWCAYVHTRLSPTVILDNQVTYVPGGKGPCGWTGGSCPQRSQKISNPVYRMQHKIVTSLDWRCCPGYSGPKCQLRAQEQQSLIHTNQAESHTAVGRGVAEQQQQQGCGDPEVMQKMTDQVNYQAMKLTLLQKKIDNISLTVNDVRNTYSSLEGKVSEDKSREFQSLLKGLKSKSINVLIRDIVREQFKIFQNDMQETVAQLFKTVSSLSEDLESTRQIIQKVNESVVSIAAQQKFVLVQENRPTLTDIVELRNHIVNVRQEMTLTCEKPIKELEVKQTHLEGALEQEHSRSILYYESLNKTLSKLKEVHEQLLSTEQVSDQKNAPAAESVSNNVTEYMSTLHENIKKQSLMMLQMFEDLHIQESKINNLTVSLEMEKESLRGECEDMLSKCRNDFKFQLKDTEENLHVLNQTLAEVLFPMDNKMDKMSEQLNDLTYDMEILQPLLEQGASLRQTMTYEQPKEAIVIRKKIENLTSAVNSLNFIIKELTKRHNLLRNEVQGRDDALERRINEYALEMEDGLNKTMTIINNAIDFIQDNYALKETLSTIKDNSEIHHKCTSDMETILTFIPQFHRLNDSIQTLVNDNQRYNFVLQVAKTLAGIPRDEKLNQSNFQKMYQMFNETTSQVRKYQQNMSHLEEKLLLTTKISKNFETRLQDIESKVTQTLIPYYISVKKGSVVTNERDQALQLQVLNSRFKALEAKSIHLSINFFSLNKTLHEVLTMCHNASTSVSELNATIPKWIKHSLPDIQLLQKGLTEFVEPIIQIKTQAALSNLTCCIDRSLPGSLANVVKSQKQVKSLPKKINALKKPTVNLTTVLIGRTQRNTDNIIYPEEYSSCSRHPCQNGGTCINGRTSFTCACRHPFTGDNCTIKLVEENALAPDFSKGSYRYAPMVAFFASHTYGMTIPGPILFNNLDVNYGASYTPRTGKFRIPYLGVYVFKYTIESFSAHISGFLVVDGIDKLAFESENINSEIHCDRVLTGDALLELNYGQEVWLRLAKGTIPAKFPPVTTFSGYLLYRT
Consider B5, for which the “expression_or_secretion, other: % reduction vs WT” value in data set [1] (glycan changed form, control: N-terminal EMI in WT HEK293T cells) was “decreases”.

Source of the values: article PMC11949838, “FUT10 and FUT11 are protein O-fucosyltransferases that modify protein EMI domains” (Nature Chemical Biology, 2025).
